Results: patent US20230330196

Molecular target: programmed death-1 homolog (PD-1H) of mouse mononuclear bone marrow cells (UniProt Q9D659)
Sequence (Q9D659 33-308): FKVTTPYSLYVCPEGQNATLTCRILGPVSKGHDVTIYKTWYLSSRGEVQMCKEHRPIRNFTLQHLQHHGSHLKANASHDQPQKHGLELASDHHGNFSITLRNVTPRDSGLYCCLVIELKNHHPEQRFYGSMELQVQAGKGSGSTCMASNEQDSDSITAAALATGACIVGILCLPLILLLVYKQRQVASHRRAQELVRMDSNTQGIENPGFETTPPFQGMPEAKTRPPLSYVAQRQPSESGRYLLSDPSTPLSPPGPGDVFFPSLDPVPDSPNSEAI

Substance: MMP-13 (added to mouse osteoclast cultures)
- OCL fusion and activation, ERK1/2 phosphorylation, NFATc1 and DC-STAMP upregulation in Pd-1h-/- versus WT OCLs: While MMP-13 induced WT OCL fusion and activation, these effects were completely blocked in Pd-1h-/- OCLs in tandem with a loss in MMP-13 induced ERK1/2 phosphorylation, NFATc1 and DC-STAMP upregulation
